Data on 15 molecules can be found in patent US20260258115A1 (MAPP BIOPHARMACEUTICAL, published 2026).

For test [1], the target named is RSV prefusion F (preF), DS-Cav1 (respiratory syncytial virus, UniProt P03420 26-513). Kind of test: BLI, IgG on sensor, 100 nM antigen. Background: Biolayer interferometry detects binding as a change in optical thickness at a sensor tip.
Test [2] deals with RSV postfusion F (postF), F deltaFP (respiratory syncytial virus, UniProt P03420 26-513). Briefly: BLI, IgG on sensor.
For test [3], the target named is RSV fusion glycoprotein (RSV F) on RSV-A2 virus (respiratory syncytial virus, UniProt P03420 26-574). Briefly: cell-based or functional assay.
Test [4] concerns the target RSV prefusion F (preF), DS-Cav1 (Respiratory syncytial virus, UniProt P03420 26-513). Kind of test: BLI, IgG on anti-human IgG sensor, 100 nM antigen.
Test [5] has as its target RSV postfusion F (postF), F ΔFP (Respiratory syncytial virus, UniProt P03420 26-513). Briefly: BLI, IgG on anti-human IgG sensor.
For test [6], the target named is RSV F on RSV-A2 virus (Respiratory syncytial virus, RSV-A2, UniProt P03420 26-574). Kind of test: cell-based or functional assay.
In test [7] the target is RSV F on recombinant mKate-RSV B 18537 virus (Respiratory syncytial virus B 18537, UniProt P13843 26-574). Kind of test: cell-based or functional assay.
Test [8] concerns the target RSV F on recombinant mKate-RSV A2 virus (Respiratory syncytial virus A2, UniProt P03420 26-574). Briefly: cell-based or functional assay.
The target in test [9] is RSV prefusion F, subtype A (preF, DS-Cav1 trimer) (Respiratory syncytial virus subtype A, UniProt P03420 26-513). Kind of test: BLI, IgG apparent affinity.

B1: ADI-41447 (antibody, V domains shown)
VH: EVQLLESGGGLVQPGGSLRLSCAASGFTFSTYAMNWVRQAPGKGLEWVSTISGSGGSTYYGDSVKGRFTISRDNSKNTLYLQMNSLRAEDTAVYYCAKAPTPWCSGGSCYVSYWGQGTLVTVSS
VL: DIVMTQTPGTLSLSPGERGTLSCRASQSVSSSYLAWYQQKPGQAPRLLIYGASSRATGIPDRFGGSGSGTDFTLTISTLEPEDFAVYYCQQYQSSPWTFGQGTKLEIK
notes: IgG1
B1 returned a Kd in [1] of 54.1 nM. Further, the binding result in test [2] is reported as “no binding (tested: 100 nM antigen)”. Besides, the “Neutralization IC50 (RSV subtype A)” value in test [3] is above 25 µg/mL.

B2: ADI-41421 (antibody, V domains shown)
VH: QVQLVESAAEVKRPGASLKVSCKASGYTFIDYDISWVRQAPGQGLDWMGWISTYDGSAKYPENLQARVAMTTDTSTSTAYMELESLTSDDTAVYYCARARRGSSGWVSTTGPTPFFDYWGRGTLVTVSS
VL: SYELTQPPSVSVSPGQTARITCSGDALPKRYAYWYQQKSGQAPVLVIYEDNKRPSGIPERFSGSSSGTVATLTISGAQVEDEADYSCYSTDATGNHRGLFGGGTKLTVL
notes: IgG1
Turning to B2, the Kd in [1] was 2.52 nM. For the same molecule, in test [2], the binding result is “no binding (tested: 100 nM antigen)”. In addition, the “Neutralization IC50 (RSV subtype A)” value in test [3] was determined as 4.78 µg/mL.

B3: ADI-41756 (antibody, V domains shown)
VH: EVQLLESGGGVVQPGRSLRLSCAASGLSFNSFGMHWVRQAPGKGLEWVAVIAYDGSNKYYADSVKGRFSISRDNSKNTLYLQMDSLRAEDTAVYYCAKAEAPNFSWSGYLSAFDIWGQGTTVTVSS
VL: QPVLTQPASVSGSPGQSVTVSCTGTSDDVGDYNYVSWYQQHPGKAPKLLIFEVSDRPSGVSTRFSGSKSGNTASLTISGLQTEDEADYYCSSYTSRNLYVFGTGTKVTVL
On to B3, for which, in [4], the Kd came out at 29 nM. Moreover, the binding result in test [5] is “no binding (tested: 100 nM antigen)”. Moreover, the “Neutralization IC50 (RSV subtype A)” value in [6] was above 25 µg/mL.

B4: ADI-41416 (antibody, V domains shown)
VH: EVQLVESGGGLVKPGGSLRLSCAASGFKFSSYTMNWVRQAPGKGLEWVSSITGGSSFINYADSVKGRFTISRDNAKNSLYLQMVSLRAEDTAVYYCARDLSSHITIFGAVSDYWGRGTTVTVSS
VL: QSVLTQPPSVSGAPGQRVTISCTGSSSNIGAGYDAHWFQQLPGSAPKLLIYANTNRPSGVPDRFSGSKSGTSASLAITGLQAEDEADYYCQSYDSTLSVVFGGGTKLTVL
notes: IgG1
B4: the Kd in test [1] came out at 0.444 nM. Besides, in test [2], the binding result is recorded as “no binding (tested: 100 nM antigen)”. The “Neutralization IC50 (RSV subtype A)” value in test [3] was found to be 0.05 µg/mL.

B5: ADI-41450 (antibody, V domains shown)
VH: EVQLVESGGGLVKPGGSLRLSCAASGFAFSSYGINWVRQVPGKRLEWVSSISGGSSFINYADSVKGRFTISRDNAGNSVYLQMNSLRAEDTAVYFCARESYGSGSSLNWFDPWGQGTLVTVSS
VL: QSVLTQPPSVSGAPGQRVTISCTGSGSNIGAGYDVHWYQQLPGIAPRLVIFGNRNRPSGVPDRISGSKSDTSASLAITGLQAEDEGDYYCQSYDKRLSGWVFGGGTKLTVL
notes: IgG1
For the molecule B5, the Kd in [1] was determined as 0.613 nM. Moreover, the binding result in [2] is “no binding (tested: 100 nM antigen)”. Moreover, the “Neutralization IC50 (RSV subtype A)” value in test [3] amounted to 0.21 µg/mL.

B6: ADI-21078 (antibody, V domains shown)
VH: EVQLVESGGGLVKPGGSLRLSCAASGFRLSDYYMSWIRQAPGKGLEWISDISGGSTYTNYADSVKGRLTISRDNAQNSLYLQMNSLRAEDTAVYYCARWGSGGPDAFHFWGQGTTVTVSS
VL: QSVLTQPPSVSGVPGQRVTISCTGSRSNIGAGYDVHWYRQLPGTAPKLLIYGNSNRPSGVPDRFSGSKSGTSASLAITGLQADDEADYYCQSYDSSLSGSVIFGGGTKVTVL
As to B6, the “Neut IC50 (ug/ml) subtype B” value in test [7] is 0.2 µg/mL. The “Neut IC50 (ug/ml) subtype A” value in test [8] was 0.03 µg/mL. Also, the Kd in test [9] turned out to be 0.311 nM.

B7: ADI-41419 (antibody, V domains shown)
VH: EVQLVESGGGLVQPGRSLRLSCAASGFTFDDYAMHWVRQAPGKGLEWVSGISWNSGSVGYSDSVKGRFTISRDNAKSSLYLQMNNLRAEDTALYYCARDMAHTQDYFDTSEYDSWGQGTLVTVSS
VL: QPVLTQPASVSGSPGQSITISCTGTSSDIGAYNYVSWYQQHPGKAPKLVVYEVNNRPSGISNRFSGSKSGNTASLTISGLQAEDEADYYCSSYTVSATLVFGGGTKLTVL
notes: IgG1
Regarding B7, the Kd in test [1] worked out at 0.305 nM. For the same molecule, the binding result in test [2] is “no binding (tested: 100 nM antigen)”. Moreover, the “Neutralization IC50 (RSV subtype A)” value in test [3] was determined as 0.01 µg/mL.

B8: ADI-41434 (antibody, V domains shown)
VH: EVQLVESGGGLVQPGRSLRLSCEASGFTFDDYAMHWVRQTPGKGLEWVSGISWNSGSIVYADSVKGRFTISRDNAKNSLYLQMHSLRPEDTALYYCAKDNYTFGNYYYYYGMDVWGQGTTVTVSS
VL: EIVLTQSPVTLSVSPGERATLSCRASQNVISNLAWYQQKPGQAPRLLIYGASTRATGIPARFSGSGSGTEFTLTISSLQSEDFAVYYCQQYNNWPLSFGGGTKVEIK
notes: IgG1; also called Ab 718
In turn, B8 yielded a Kd in test [1] of 0.613 nM. The binding result in [2] is “no binding (tested: 100 nM antigen)”. Further, in [3], the “Neutralization IC50 (RSV subtype A)” value was above 25 µg/mL.

B9: ADI-41442 (antibody, V domains shown)
VH: EVQLLESGGGLVQPGRSLRLSCAASGFTFDDYAMHWVRQAPGKGLEWVSGISWHSGSIVYADSVKGRFTISRDNAKNSLYLQMSSLRAEDTALYYCVKDHYNWNDNPHFHYGLDVWGQGTTVTVSS
VL: EIVLTQSPATLSVSPGERATLSCRASQSVISNLAWYQQKPGQAPRLFIYGASTRATGIPARFSGSGSGTEFTLTISSLQSEDFAVYFCQQYNNWPITFGQGTRLEIK
notes: IgG1; also called Ab 726
In the case of B9, in test [1], the Kd stood at 0.521 nM. Moreover, the binding result in test [2] was “no binding (tested: 100 nM antigen)”. For the same molecule, the “Neutralization IC50 (RSV subtype A)” value in test [3] was determined as 0.04 µg/mL.

B10: ADI-21069 (antibody, V domains shown)
VH: EVQLVESGAEVRKPGASVKVSCKASGYTFSSNAISWVRQAPGQGLEWMGYISVFNGNTKYAQNLQGRVTMTTDTATSTVYMELRSLRYDDTAIYYCARESLGMGGFYFDHWGQGTLVTVSS
VL: SYELTQPPSVSVAPGQTARITCGANNIGSDSVHWYQQKPGQAPVLVVFDDRDRPSGIPERFSGSNSGNTATLTISRVEAGDEADYYCQVWMTSDRSVFGGGTKLTVL
Take B10: in [7], the “Neut IC50 (ug/ml) subtype B” value was 0.26 µg/mL. For the same molecule, the “Neut IC50 (ug/ml) subtype A” value in [8] worked out at 0.11 µg/mL. Further, in test [9], the Kd was 0.123 nM.

B11: ADI-41449 (antibody, V domains shown)
VH: EVQLVESGGGLVKPGGSLRLSCAASGFSFSSYRVNWVRQAPGKGLEWVSSITGGSSFIDYADSVKGRFTISRDNAKNSLFLQMNSLRAEDTAVYFCARDSMTTVTNSLAFDIWGQGTMVTVSS
VL: QSVLTQPPSVSGAPGQRVTISCTGSSSNIGVGYDVQWYQQLPGTAPKLLIYSNNKRPSGVPDRFSGSKSGTSASLAITGLQAEDEADYYCQSYDRSLSVVFGGGTKVTVL
notes: IgG1
The molecule B11 displayed a Kd in test [1] of 0.508 nM. For the same molecule, the binding result in test [2] is “no binding (tested: 100 nM antigen)”. Besides, the “Neutralization IC50 (RSV subtype A)” value in test [3] is 0.16 µg/mL.

B12: ADI-41452 (antibody, V domains shown)
VH: QVQLVQSGAELKKPGASVKVSCKASGHTFATYAIHWVRQAPGQSLEWLGWINTANGDTKYSQKFRATVTIHGDTSANTVYLELSRLRSEDTAVYYCASPPLVGAINLEFWGPGTLVTVSS
VL: QSVLTQPASVSGSVGQSITISCTGTSSDVGGYNSVSWYQHHPDKAPKLIIYEVSNRPSGVSHRFSGSKSGNTASLTISGLQAEDEADYYCSSYTTSDTLIFGGGTKVTVL
notes: IgG1; also called Ab 736
On to B12, for which the Kd in test [1] came to 3.33 nM. For the same molecule, the binding result in [2] is recorded as “no binding (tested: 100 nM antigen)”. Also, in [3], the “Neutralization IC50 (RSV subtype A)” value is above 25 µg/mL.

B13: ADI-41454 (antibody, V domains shown)
VH: QVQLVQSGAEVKKPGASVKVSCKASGYTFTHFGISWVRQAPGQGLEWMGWISIYNGNTNYAQKIQGRATMTTDASTSTAYMELRSLTSDDTAVYYCAREPPSTTAAATSDYWGQGTLVTVSS
VL: DIVMTQSPLSLPVTLGQPASISCRSSQSLVYIEGNTYLSWFQQRPGQSPRRLIYKVSNRDSGVPDRFSGSGSGTDFTLKISRVEAEDVGLYYCMQGTHWPRTFGQGTKLEIK
notes: IgG1; also called Ab 738
B13 yielded a Kd in test [1] of 0.588 nM. In addition, in test [2], the binding result was “no binding (tested: 100 nM antigen)”. The “Neutralization IC50 (RSV subtype A)” value in [3] is 0.88 µg/mL.

B14: ADI-41787 (antibody, V domains shown)
VH: EVQLLESGGGVVQPGRSLRLSCAASGFTFSSSGMHWVRQAPGKGLEWVAIISSDGSKHYYADSVKGRFTISRDNSKNTLYLEMNSLRAEDSAVYYCAREGVWSGFFVDTGTDFRHHGMDVWGQGTTVTVSS
VL: SYELTQPPSVSVSPGQTARITCSGDALPKKFAFWYQQKSGQAPLLVIHEDNKRPSGIPERFSGSSSGTLATLTISGAQVEDEADYYCYSIDTSANLGVFGGGTKLTVL
B14 displayed a Kd in test [4] of 1.56 nM. The binding result in test [5] is on record as “no binding (tested: 100 nM antigen)”. In addition, in test [6], the “Neutralization IC50 (RSV subtype A)” value turned out to be 0.38 µg/mL.

B15: ADI-21080 (antibody, V domains shown)
VH: EVQLLESGGGLVKPGGSLRLSCEVSGFRLSDYYMSWIRQAPGKGLEWVSHISGGSTYTNYADSVKGRFTISRDNGKKSMYLQMNSLRAEDTALYYCAKWGSGGPEAFDIWGRGTMVTVSS
VL: QSALIQPPSVSGAPGQRVTISCTGSSSNIGAGYDVHWYQQIPGTAPKLLIYGNNNRPSGVPDRFSGSKSGTSASLAITGLQAEDEADYYCQSYDNSLSGSVVFGGGTKLTVL
Regarding B15, in [7], the “Neut IC50 (ug/ml) subtype B” value was found to be 0.17 µg/mL. The “Neut IC50 (ug/ml) subtype A” value in [8] is 0.1 µg/mL. In [9], the Kd came to 0.36 nM.
